Numbering of substitutions follows the chain as printed.
T1: HisCD74v1 (recombinant extracellular domain of human CD74 variant 1, N-terminal hexameric His tag) (human, UniProt P04233 73-296)
T1 construct: also called recombinant CD74v1; CD74v1 extracellular domain
T1 sequence: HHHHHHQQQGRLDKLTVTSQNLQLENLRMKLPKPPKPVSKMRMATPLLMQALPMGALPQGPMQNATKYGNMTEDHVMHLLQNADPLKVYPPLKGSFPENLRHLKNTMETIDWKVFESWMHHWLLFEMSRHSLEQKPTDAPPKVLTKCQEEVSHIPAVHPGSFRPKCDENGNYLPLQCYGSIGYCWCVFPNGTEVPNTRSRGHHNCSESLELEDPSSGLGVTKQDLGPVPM

T2: HisCD74v2 (recombinant extracellular domain of human CD74 variant 2, N-terminal hexameric His tag) (human, UniProt P04233 73-296)
T2 construct: also called recombinant CD74v2; CD74v2 extracellular domain
T2 sequence: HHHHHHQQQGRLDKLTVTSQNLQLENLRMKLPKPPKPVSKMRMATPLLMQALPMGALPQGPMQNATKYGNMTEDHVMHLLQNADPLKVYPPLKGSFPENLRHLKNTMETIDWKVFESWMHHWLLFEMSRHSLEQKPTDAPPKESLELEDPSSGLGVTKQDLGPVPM

B1: HuMab-CD74-008 (antibody, V domains shown)
VH: QVQLVESGGGVVQPGRSLRLSCAASGFTFSSYAMHWVRQAPGKGLEWVAVISYDGSNKYYADSVKGRFTISRDNSKNTLYLQMNSLRAEDTAVYYCARGREITSQNIVILLDYWGQGTLVTVSS
VL: DIQMTQSPSSLSASVGDRVTITCRASQGISSWLAWYQQKPEKAPKSLIYAASSLQSGVPSRFSGSGSGTDFTLTISSLQPEDFATYYCQQYNSYPLTFGGGTKVEIK
notes: Human IgG,kappa antibody (HuMab) produced transiently in HEK-293F cells; also called antibody 008
B2: HuMab-CD74-011-mcMMAF (antibody, IgG1, V domains shown)
VH: QVQLVESGGGVVQPGRSLRLSCAASGFTFSSYGMHWVRQAPDKGLEWVAVIWYDGSNKYYADSVKGRFTISRDNSKNTLYLQMNSLRAEDTAVYYCARGGTLVRGAMYGTDVWGQGTTVTVSS
VL: B1 VL
modifications: drug-linker mcMMAF alkylated to the cysteines of the reduced antibody (DAR 3.9 by HIC)
notes: Antibody-drug conjugate of HuMab-CD74-011 (IgG1,kappa)
B3: HuMab-CD74-011-vcMMAE (antibody, IgG1, V domains shown)
VH: B2 VH
VL: B1 VL
modifications: drug-linker vcMMAE alkylated to the cysteines of the reduced antibody (DAR 3.8-3.9)
notes: Antibody-drug conjugate of HuMab-CD74-011 (IgG1,kappa); also called vcMMAE-conjugated HuMab-CD74-011
B4: HuMab-CD74-011 (antibody, human IgG1, V domains shown)
VH: B2 VH
VL: B1 VL
notes: Human IgG1,kappa antibody produced transiently in HEK-293F cells; also called antibody 011
B5: HuMab-CD74-006-mcMMAF (antibody, IgG1, V domains shown)
VH: B1 VH with N57I, A88V, Y94F, S123T
VL: B1 VL
modifications: drug-linker mcMMAF alkylated to the cysteines of the reduced antibody (DAR 3.7-4.1)
notes: Antibody-drug conjugate of HuMab-CD74-006 (IgG1,kappa)
B6: HuMab-CD74-005-vcMMAE (antibody, IgG1, V domains shown)
VH: QVQLVESGGGVVQPGRSLRLSCAASGFTFSSYAMHWVRQAPGKGLEWVAVISYDGSNKYYADSVKGRFTISRDNSKNTLYLQMNSLRAEDTAVYYCASGRYYGSGSYSSYFDYWGQGTLVTVSS
VL: B1 VL with Y36F
modifications: drug-linker vcMMAE alkylated to the cysteines of the reduced antibody (DAR 3.9-4.0)
notes: Antibody-drug conjugate of HuMab-CD74-005 (IgG1,kappa); also called vcMMAE-conjugate of HuMab-CD74-005
B7: HuMab-CD74-005-mcMMAF (antibody, IgG1, V domains shown)
VH: B6 VH
VL: B1 VL with Y36F
modifications: drug-linker mcMMAF alkylated to the cysteines of the reduced antibody (DAR 3.9-4.0)
notes: Antibody-drug conjugate of HuMab-CD74-005 (IgG1,kappa); also called mcMMAF-conjugate of HuMab-CD74-005
B8: HuMab-CD74-006 (antibody, human IgG1, V domains shown)
VH: B1 VH with N57I, A88V, Y94F, S123T
VL: B1 VL
notes: Human IgG1,kappa antibody produced transiently in HEK-293F cells; also called antibody 006
B9: HuMab-CD74-005 (antibody, human IgG1, V domains shown)
VH: B6 VH
VL: B1 VL with Y36F
notes: Human IgG1,kappa; produced transiently in HEK-293F cells; also called antibody 005
B10: HuMab-CD74-006-vcMMAE (antibody, IgG1, V domains shown)
VH: B1 VH with N57I, A88V, Y94F, S123T
VL: B1 VL
modifications: drug-linker vcMMAE alkylated to the cysteines of the reduced antibody (DAR 4.0)
notes: Antibody-drug conjugate of HuMab-CD74-006 (IgG1,kappa); also called vcMMAE-conjugated HuMab-CD74-006

How the values were obtained:
[1] = biological target: human CD74, naturally expressed on cells (Raji, Daudi, M4A4, NCI-H747 cells; human tonsil tissue) (human) (UniProt P04233); experiment: cell-based or functional assay
[2] = biological target: human CD74, naturally expressed on cells (Raji, Daudi, M4A4, NCI-H747 cells; human tonsil tissue) (human) (UniProt P04233); experiment: FACS on Daudi cells at 0° C., Alexa-488-labeled antibody displaced by excess unlabeled antibody
[3] = biological target: T1, HisCD74v1 (recombinant extracellular …); experiment: ELISA, coated recombinant CD74v1 extracellular domain
Method: (§1) ELISA plates (Greiner BioOne) were coated 0/N at 4° C. with 2 μg/mL, 100 μL per well, recombinant CD74v1 or CD74v2 in PBS (B. Braun Melsungen AG). Sequences and production of the isoforms were described supra. ELISA wells were washed three times with PBS containing 0.05% Tween-20 (PBST), emptied, and blocked with 1% (w/v) BSA fraction V (Roche) in PBS at RT for 1 h while shaking (300 rpm), and emptied. Subsequently, 100 μL anti-CD74 HuMab antibodies were added in serial dilutions in 0.2% (w/v) BSA fraction V in PBST (assay buffer) and incubated while shaking at RT for 90 min. ELISA plates were washed three times with PBST, emptied, and bound HuMab antibodies were detected using HRP-conjugated goat-anti human IgG (100 μL; 1:5,000; Peroxidase Affinipure Goat anti-human IgG, F(ab′)2 Fragment Specific [min X Bov,Hrs,Ms Sr Prot]; Jackson Immunoresearch) in assay buffer and incubated while shaking at RT for 90 min. Plates were washed three times with PBST, emptied, and incubated with 100 μL ABTS solution (50 ml ABTS buffer [Roche] and one ABTS tablet [50 mg; Roche]). After incubation in the dark at RT for 30 min, the reaction was stopped by addition of 100 μL per well oxalic acid (2% [w/v]). Plates were measured at OD 405 nm in an ELISA reader (Biotek Instruments, EL808 Absorbance Microplate Reader).
(§2) Isotype control Ab IgG1-b12 was used as a negative control. Binding curves were analyzed using non-linear regression (sigmoidal dose-response with variable slope) using GraphPad Prism 5 software (GraphPad Software, San Diego, Calif., USA).

[4] = biological target: T2, HisCD74v2 (recombinant extracellular …); experiment: ELISA, coated recombinant CD74v2 extracellular domain
Method: as §1, §2

[5] = biological target: T1, HisCD74v1 (recombinant extracellular …); experiment: ELISA, coated recombinant CD74v1 extracellular domain (CD74ECDHis); mean of four experiments
Method: ELISA plates (Greiner BioOne) were coated with 2 μg/mL, 100 μL per well, recombinant CD74ECDHis in PBS (B. Braun Melsungen AG) at 4° C., 0/N. ELISA plates were emptied and blocked with 200 μL/well PBS containing 0.05% Tween-20 (PBST) while shaking (300 rpm), at RT for 1 hour, washed three times with 300 μL PBST and emptied. Subsequently, 100 μL anti-CD74 ADCs or unconjugated CD74-specific HuMab antibodies were added in serial dilutions in PBST and incubated while shaking at RT for 2 hours. ELISA plates were washed with PBST and emptied. Bound anti-CD74 ADCs and unconjugated HuMab antibodies were detected by addition of HRP-conjugated mouse-anti human IgG1 (100 μL; 0.015 μg/mL; Sanquin; # M1328) in PBST and incubation while shaking, at RT for 2 hours. Plates were washed with PBST, emptied and incubated with 100 μL ABTS solution (50 ml ABTS buffer [Roche] and one ABTS tablet [50 mg; Roche]). After incubation in the dark while shaking, at RT for 30 min, the reaction was stopped by incubation with 100 μL per well oxalic acid (2% [w/v]; Riedel de Haen) in the dark while shaking, for 10 min. Plates were measured at OD 405 nm in an ELISA reader (Biotek Instruments, EL808 Absorbance Microplate Reader).
IgG1-b12, an antibody binding to a non-related antigen, was used as a negative control (both unconjugated as well as in ADC format). Binding curves were analyzed by non-linear regression (sigmoidal dose-response with variable slope) using GraphPad Prism 5 software (GraphPad Software, San Diego, Calif., USA).

[6] = biological target: human CD74, naturally expressed on cells (Raji, Daudi, M4A4, NCI-H747 cells; human tonsil tissue) (human) (UniProt P04233); experiment: FACS on Daudi cells; mean of three experiments
[7] = biological target: human CD74, naturally expressed on cells (Raji, Daudi, M4A4, NCI-H747 cells; human tonsil tissue) (human) (UniProt P04233); experiment: FACS on Daudi cells, 10 µg/mL; mean of three experiments
[8] = biological target: human CD74, naturally expressed on cells (Raji, Daudi, M4A4, NCI-H747 cells; human tonsil tissue) (human) (UniProt P04233); experiment: FACS on Raji cells

Row | Molecule | % viability (minimal) of Raji cells, anti-kappa-ETA' assay [1] [%] | koff [2] [s⁻¹] | time until half of the bound labeled antibody was replaced [2] [min] | EC50 [3] [µg/mL] | EC50 [4] [µg/mL] | EC50 [5] [µg/mL] | EC50 [6] [µg/mL] | Maximal binding (MFI at 10 µg/mL) [7] [MFI] | % kill of Daudi cells at 10 µg/mL [1] [%] | % kill of M4A4 cells at 10 µg/mL [1] [%] | % kill of NCI-H747 cells at 10 µg/mL [1] [%] | % kill of Raji cells at 10 µg/mL [1] [%] | IC50 of killing of Daudi cells [1] [µg/mL] | IC50 of killing of M4A4 cells [1] [µg/mL] | IC50 of killing of Raji cells [1] [µg/mL] | IC50 of killing of NCI-H747 cells [1] [µg/mL] | EC50 [8] [µg/mL] | EC50 of killing of Raji cells, anti-kappa-ETA' assay [1] [µg/mL]
1 | IgG1-b12 (antibody) | 85.9 |  |  |  |  |  |  |  |  |  |  |  |  |  |  |  |  | 
2 | B1 |  | 0.00333 | 4 | 1.39 | 0.759 |  |  |  |  |  |  |  |  |  |  |  |  | 
3 | B2 |  |  |  |  |  | 0.02 | 0.05 | 5330 | 92 | 96 | 17 | 92 | 0.01 | 0.1 | 0.01 |  |  | 
4 | B3 |  |  |  |  |  | 0.03 | 0.05 | 3790 | 86 | 100 | 40 | 89 | 0.02 | 0.32 | 0.04 | 7.91 |  | 
5 | B4 |  | 0.00117 | 10 | 0.344 | 0.245 | 0.02 | 0.05 | 5780 |  |  |  |  |  |  |  |  | 0.151 | 
6 | B5 |  |  |  |  |  | 0.02 | 0.03 | 4050 | 93 | 97 | 21 | 93 | 0.01 | 0.12 | 0.01 |  |  | 
7 | B6 |  |  |  |  |  | 0.04 | 0.26 | 2860 | 85 | 100 | 41 | 88 | 0.08 | 0.56 | 0.11 | 7.48 |  | 
8 | B7 |  |  |  |  |  | 0.04 | 1.05 | 2530 | 90 | 97 | 5 | 92 | 0.03 | 0.38 | 0.05 |  |  | 
9 | B8 | 1.5 | 0.004 | 3 | 0.321 | 0.21 | 0.02 | 0.04 | 4600 |  |  |  |  |  |  |  |  | 0.196 | 57
10 | B9 |  |  |  |  |  | 0.03 | 1.27 | 2780 |  |  |  |  |  |  |  |  |  | 
11 | B10 |  |  |  |  |  | 0.03 | 0.03 | 3280 | 85 | 100 | 49 | 90 | 0.03 | 0.28 | 0.05 | 6.12 |  | 

Reference: patent publication US20170173151A1 (Genmab, published 2017)
